{"source": "paper PMC11945200", "about": "“Aptamer Paper-Based Fluorescent Sensor for Determination of SARS-CoV-2 Spike Protein”", "binders": {"B1": {"name": "SARS-CoV-2 S-RBD aptamer (G-CDs@Apt) (ssDNA)", "DNA": "CAGCACCGACCTTGTGCTTTGGGAGTGCTGGTCCAAGGGCGTTAATGGACA", "modifications": "5'-NH2-C6"}}, "target": "SARS-CoV-2 spike S1 protein (SARS-CoV-2, UniProt P0DTC2 13-685)", "assay": "fluorescence recovery (target-induced release of the probe from Nb2C MXene quencher)", "conditions": "protein: recombinant"}
{"binder": "B1", "values": [{"measurement": "binding result", "result": "binds"}]}
